# Results: patent publication US20240392003A1 (NUMAB THERAPEUTICS, published 2024)
# Where two headings read alike, the source gives them in different places.
# Legend:
# [1] = target: T1, human ROR1 expressed on cells (human, UniProt Q01973 30-937); test: flow cytometry, MDA-MB-231 cells, 1 mg/ml hSA
# T1 construct: whole, on cells; One molecule for cell-surface ROR1 on all cell lines; the cell line is named under assay; also called hROR1; plasma membrane human ROR1
# Experimental: After incubation at 4° C. for 1 h in presence of 1 mg/ml of human serum albumin (hSA), plates were washed and incubated with specific detection antibodies.
# The binding of MATCH4 molecules to plasma membrane-based human ROR1 was assessed by flow cytometry. The calculated EC₅₀, rel.
# [2] = target: T2, recombinant human ROR1 protein (Fc-Tag, Acro Biosystems RO1-H5250) (human, UniProt Q01973 30-406); test: SPR; hROR1-Fc immobilized (Avidity)
# T2 construct: Bought; also called hROR1; recombinant human ROR1 ECD; not shown: Fc tag
# [3] = target: T1, human ROR1 expressed on cells; test: flow cytometry, JIMT-1 cells (ROR1-positive)
# [4] = target: T3, recombinant human CD3 epsilon extra-cellular domain protein (His-Tag, SinoBiological) (human, UniProt P07766 23-126); test: SPR; hCD3ε immobilized, two-state fit
# T3 construct: extracellular domain; Bought; also called hCD3ε; human CD3ε; not shown: His tag
# [5] = target: T1, human ROR1 expressed on cells; test: cell-based or functional assay
# [6] = target: T3, recombinant human CD3 epsilon …; test: SPR; hCD3ε immobilized, two-state fit (kd1)
# Experimental: Binding kinetics (including affinity) of the four MATCH4 molecules to recombinant human CD3 epsilon extra-cellular domain protein (hCD3ε; His-Tag, SinoBiological) were determined by SPR analysis on a T200 device (Biacore, Cytiva). Recombinant hCD3ε molecules were covalently immobilized to a carboxymethylated dextran surface (CM5 sensorchip; Biacore, Cytiva) and a titration series of each MATCH4 molecule was injected as analyte. After each analyte injection-cycle, every flow channel on the sensor chip was regenerated (Glycine, pH 2.0 and 3 M MgCl₂), and a new concentration of MATCH4 molecule was injected. […] The apparent dissociation (kd1) and association (kₐ₁) rate constants, the second reaction constants (kₐ₂ and kd2) and the apparent dissociation equilibrium constant (KD) were calculated with the Biacore analysis software (Biacore Evaluation software Version 3.2, Cytiva) using a two-state binding model, and the quality of the fits was monitored based on relative Chi2. The binding level was calculated as the maximum stability binding achieved normalized to the theoretical Rmax.
# [7] = target: T1, human ROR1 expressed on cells; test: cell-based or functional assay; remark: listed apart in the source
# [8] = target: T1, human ROR1 expressed on cells; test: cell-based or functional assay; remark: listed apart in the source
# [9] = target: T4, human ROR1 (Peprotech 160-054) (human, UniProt Q01973 30-406); test: SPR; MATCH4 captured, hROR1 analyte (Affinity)
# T4 construct: Bought, used as analyte; also called hROR1; recombinant human ROR1 protein
# Experimental: Binding affinity without avidity was determined by using a proprietary anti-framework rabbit IgG (rlgG21-57-20-B11) immobilized to a carboxymethylated dextran surface (CM5 sensorchip; Biacore, Cytiva) to capture the MATCH4 molecules on the surface. A titration series of human ROR1 (Peprotech 160-054) molecule was injected as analyte. After each capture-analyte injection cycle, every flow channel on the sensor chip was regenerated (3 M MgCl₂), and a MATCH4 molecule was captured again followed by a different concentration of human ROR1. The binding kinetics to human ROR1 were measured using a multi-cycle kinetic assay, with ten analyte concentrations ranging from 0.088 to 90 nM, 1:2 diluted in running buffer (HEPES buffered saline, 0.05% Tween-20, pH 7.5; Bioconcept).
# For both assays, the apparent dissociation (kd) and association (kₐ) rate constants and the apparent dissociation equilibrium constant (KD) were calculated with the Biacore analysis software (Biacore Evaluation software Version 3.2, Cytiva) using a one-to-one Langmuir binding model and quality of the fits was monitored based on Chi2 and U-value, which are measures for the quality of the curve fitting. The binding level was calculated as the maximum stability binding achieved normalized to the theoretical Rmax.
# [10] = target: T3, recombinant human CD3 epsilon …; test: SPR; hCD3ε immobilized, two-state fit (Ka1)
binder,measurement,setting,value
"PRO2590 (bispecific antibody, heterodimeric MATCH4, bivalent for ROR1, monovalent for CD3 and hSA; also called MATCH4 with 55-38-D07-sc06 / 19-04-A10-sc06 / 28-21-D09-sc04 / 55-38-D07-sc06) chain 1: DVQMTQSPSSLSASVGDRVTITCRASENIYSGLAWYQQKPGKPPKLLIYRASTLASGVSSRFSGSGSGTDFTLTISSLQPEDFATYYCQGGYYSSSSTYIAFGCGTKVTVLGGGGGSGGGGSGGGGSGGGGSQSQVVESGGGLVQPGGSLRLSCAVSGFDLSSYAVSWVRQAPGKCLEWIGIIYPRANTYYASWAKGRFTISKDNSKNTVYLQMNSLRAEDTAVYFCARDRYDSGAYLYTTYFNLWGQGTLVTVSSGGGGSGGGGSAFELTQSPSSLSASVGDRVTITCQASESINSRLAWYQQKPGQPPKLLIYDASDLTSGVPSRFSGSGSGTDFTLTISSLQPEDFATYYCQGYGGSSTTTFGCGTKLTVLGGGSGGSDIQMTQSPSSLSASVGDRVTITCQSSQSVFSNNYLAWFQQKPGQSPKRLIYSASTLASGVPSRFSGSGSGTDFTLTISSLQPEDFATYYCLGSYACSSADCYVFGTGTKVTVLG chain 2: DVQMTQSPSSLSASVGDRVTITCRASENIYSGLAWYQQKPGKPPKLLIYRASTLASGVSSRFSGSGSGTDFTLTISSLQPEDFATYYCQGGYYSSSSTYIAFGCGTKVTVLGGGGGSGGGGSGGGGSGGGGSQSQVVESGGGLVQPGGSLRLSCAVSGFDLSSYAVSWVRQAPGKCLEWIGIIYPRANTYYASWAKGRFTISKDNSKNTVYLQMNSLRAEDTAVYFCARDRYDSGAYLYTTYFNLWGQGTLVTVSSGGGGSGGGGSEVQLVESGGGLVQPGGSLRLSCAASGFSLSSYDMSWVRQAPGKGLAWIGASYASGPTYYASWAKGRFTISRDNSKNTVYLQMNSLRAEDTATYFCARGGWTGTSHSNIWGQGTLVTVSSGGGSGGGSGGGSGEVQLVESGGGLVQPGGSLRLSCAASGFSLSSYAMNWVRQAPGKCLEWIGHINAGDIAYYATWAKGRFTISRDNSKNTVYLQMNSLRAEDTAVYFCARGAGGFSTGPFKLWGQGTLVTVSS",EC50,[1],1.23 nM
same,Rel. maximum binding (MFIMATCH4/MFIPRO2213),[1],2.76
same,"rel. EC50 (EC50, PRO2213/EC50, MATCH4)",[1],0.56
same,Kd,[2],0.136 nM
same,koff,[2],6.15e-05 s⁻¹
same,kon,[2],453000 M⁻¹ s⁻¹
same,EC50 (read off the curve),[3],1 to 2 nM
same,Ka2,[4],0.0055 s⁻¹
same,Kd,[4],5.7 nM
same,Kd2,[4],0.0043 s⁻¹
same,Avg. % max. CD4 T cell act. (JIMT-1),[5],35.3%
same,Avg. % max. CD4 T cell act. (MDA-MB-231),[5],79.3%
same,Avg. % max. CD4 T cell act. (SKOV3),[5],78.3%
same,Avg. EC50 (nM) CD4 T cell act. (JIMT-1),[5],0.11 nM
same,Avg. EC50 (nM) CD4 T cell act. (MDA-MB-231),[5],0.007 nM
same,Avg. EC50 (nM) CD4 T cell act. (SKOV3),[5],0.02 nM
same,koff,[6],0.0058 s⁻¹
same,Avg. % max. CD8 T cell act. (JIMT-1),[7],22.5%
same,Avg. % max. CD8 T cell act. (MDA-MB-231),[7],68.8%
same,Avg. % max. CD8 T cell act. (SKOV3),[7],63.7%
same,Avg. EC50 (nM) CD8 T cell act. (JIMT-1),[7],0.09 nM
same,Avg. EC50 (nM) CD8 T cell act. (MDA-MB-231),[7],0.013 nM
same,Avg. EC50 (nM) CD8 T cell act. (SKOV3),[7],0.034 nM
same,Avg. % max. lysis (JIMT-1),[8],38.6%
same,Avg. % max. lysis (MDA-MB-231),[8],52.2%
same,Avg. % max. lysis (SKOV3),[8],51.8%
same,Avg. EC50 (nM) CD8 T cell act. (MDA-MB-231),[8],0.013 nM
same,Avg. EC50 (nM) CD8 T cell act. (SKOV3),[8],0.034 nM
same,Avg. EC50 (nM) Cytotoxicity (JIMT-1),[8],0.13 nM
same,Avg. EC50 (nM) Cytotoxicity (MDA-MB-231),[8],0.016 nM
same,Avg. EC50 (nM) Cytotoxicity (SKOV3),[8],0.049 nM
same,Kd,[9],2.9 nM
same,koff,[9],0.00017 s⁻¹
same,kon,[9],59000 M⁻¹ s⁻¹
same,kon,[10],450000 M⁻¹ s⁻¹
